Drawing on US20110230416A1, this text covers percentage of shift of the fluorescence signal in zone Q2 for two molecules.

The target of the experiment is hLDLR of non-genetically modified human cells (human fibroblasts, HUVEC) (human), P01130. Description: FACS on HUVEC.
Chain of hLDLR of non-genetically modified human cells (human fibroblasts, HUVEC) (human), P01130 (P01130 22-860): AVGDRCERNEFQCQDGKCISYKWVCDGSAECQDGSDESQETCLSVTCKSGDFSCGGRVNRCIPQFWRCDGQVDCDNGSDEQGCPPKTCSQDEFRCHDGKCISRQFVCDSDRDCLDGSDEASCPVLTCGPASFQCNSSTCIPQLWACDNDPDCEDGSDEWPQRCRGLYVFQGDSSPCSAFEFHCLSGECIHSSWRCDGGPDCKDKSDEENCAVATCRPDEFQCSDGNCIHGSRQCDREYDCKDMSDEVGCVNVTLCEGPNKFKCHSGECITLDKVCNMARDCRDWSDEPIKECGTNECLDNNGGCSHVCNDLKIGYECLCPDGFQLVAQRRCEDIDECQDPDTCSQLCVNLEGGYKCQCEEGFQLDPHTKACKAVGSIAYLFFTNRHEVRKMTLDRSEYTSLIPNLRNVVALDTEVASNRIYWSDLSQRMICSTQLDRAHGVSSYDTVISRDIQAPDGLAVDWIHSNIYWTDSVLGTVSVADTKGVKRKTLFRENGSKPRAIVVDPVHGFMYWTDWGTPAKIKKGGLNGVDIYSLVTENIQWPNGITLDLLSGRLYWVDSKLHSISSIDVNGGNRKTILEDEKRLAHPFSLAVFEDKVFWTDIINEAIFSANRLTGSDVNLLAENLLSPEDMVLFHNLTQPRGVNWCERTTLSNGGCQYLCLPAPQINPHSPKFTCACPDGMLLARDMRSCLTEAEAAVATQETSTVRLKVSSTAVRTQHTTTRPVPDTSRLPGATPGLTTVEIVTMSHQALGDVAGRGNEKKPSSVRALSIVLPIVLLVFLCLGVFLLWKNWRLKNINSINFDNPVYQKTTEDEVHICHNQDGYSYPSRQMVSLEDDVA

TPSAHAMALQSLSVG (modifications not checked) [bacterial virus clone expressing linear peptide SEQ ID NO: 21]: the percentage of shift of the fluorescence signal in zone Q2 is over 55.8%.
As to DSGLCMPRLRGCDPR (modifications not checked) [bacterial virus clone expressing cyclic peptide SEQ ID NO: 11], the percentage of shift of the fluorescence signal in zone Q2 was over 70%.
